Assay [1] has as its target T1, human interleukin 12 (hIL-12), p70 heterodimer of p35 and p40 (human, UniProt P29459 23-219; P29460 23-328).
T1 sequence (looked up) 1: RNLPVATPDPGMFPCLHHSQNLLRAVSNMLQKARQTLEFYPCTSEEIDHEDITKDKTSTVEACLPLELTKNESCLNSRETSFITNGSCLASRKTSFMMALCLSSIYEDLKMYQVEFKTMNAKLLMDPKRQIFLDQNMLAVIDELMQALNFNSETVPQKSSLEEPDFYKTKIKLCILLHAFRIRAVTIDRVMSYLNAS
T1 sequence (looked up) 2: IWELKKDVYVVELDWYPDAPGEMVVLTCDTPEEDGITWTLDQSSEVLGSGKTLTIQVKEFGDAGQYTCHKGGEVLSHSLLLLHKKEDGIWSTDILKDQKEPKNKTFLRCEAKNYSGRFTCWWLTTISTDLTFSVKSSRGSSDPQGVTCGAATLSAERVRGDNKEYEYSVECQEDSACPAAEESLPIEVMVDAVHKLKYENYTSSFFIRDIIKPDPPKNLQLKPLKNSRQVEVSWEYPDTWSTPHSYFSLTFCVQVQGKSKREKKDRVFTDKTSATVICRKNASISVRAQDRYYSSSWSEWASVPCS
The assay can be described thus: cell-based or functional assay.

For assay [2], the target named is T1, human interleukin 12 (hIL-12), p70 …. Nature of the assay: RB assay: inhibition of IL-12 binding to its receptor.
For assay [3] the target is unchanged. Nature of the assay: koff, Table 2 (surface plasmon resonance per text). A general note: Surface plasmon resonance follows binding to a sensor surface in real time, without labels.
Assay [4] has the same target. Nature of the assay: cell-based or functional assay. The source holds these as a separate data set.

5 molecules from patent US20140079714A1 (published 2014) can be followed below.

B1: Y61-L50Y (antibody, V domains shown)
VH: QVQLVQSGGGVVQPGRSLRLSCAASGFTFSSYGMHWVRQAPGKGLEWVAFIRYDGSNKYYADSVKGRFTISRDNSKNTLYLQMKSLRAEDTAVYYCKTHGSHDNWGQGTMVTVSS
VL: SYVLTQPPSVSGTPGQRVTISCSGGRSNIGSNTVKWYQQLPGTAPKLLIYYNDQRPSGVPDRFSGSKSGTSASLAITGVQAEDEADYYCQSYDRGTHPALLFGTGTKVTVLG
Broadly, the IC50 is the midpoint of a concentration-inhibition curve. In the case of B1, the “IFN gamma IC50” value in assay [1] was 0.02 nM. For the same molecule, the IC50 in assay [2] worked out at 0.02 nM.

B2: Y61-L50Y* IgG (antibody, V domains shown)
VH: QVQLVQSGGGVVQPGRSLRLSCAASGFTFSSYGMHWVRQAPGKGLEWVAFIRYDGSNKYYADSVKGRFTISRDNSKNTLYLQMKSLRAEDTAVYYCKTHGSHDNWGQGTMVTVSS
VL: SYVLTQPPSVSGTPGQRVTISCSGGRSNIGSNTVKWYQQLPGTAPKLLIYYNDQRPSGVPDRFSGSKSGTSASLAITGVQAEDEADYYCQSYDRGTHPALLFGTGTKVTVLG
notes: IgG
Usually koff stands for the rate constant with which the complex falls apart. For the molecule B2, in assay [1], the “IFN gamma IC50” value turned out to be 0.03 nM and the “PHA assay IC50” value was 0.02 nM. The off-rate (koff) in assay [3] is 6.98e-05 s⁻¹.

B3: Y-61-L50Y-H31E**gG (antibody, V domains shown)
VH: QVQLVQSGGGVVQPGRSLRLSCAASGFTFSEYGMHWVRQAPGKGLEWVAFIRYDGSNKYYADSVKGRFTISRDNSKNTLYLQMKSLRAEDTAVYYCKTHGSHDNWGQGTMVTVSS
VL: SYVLTQPPSVSGTPGQRVTISCSGGRSNIGSNTVKWYQQLPGTAPKLLIYYNDQRPSGVPDRFSGSKSGTSASLAITGVQAEDEADYYCQSYDRGTHPALLFGTGTKVTVLG
notes: also called Y61-L50Y-H31E IgG
Take B3: in assay [1], the “IFN gamma IC50” value stood at 0.02 nM and the “PHA assay IC50” value came out at 0.06 nM. In assay [3], the koff is 2.99e-05 s⁻¹.

B4: Y61-L94Y IgG (antibody, V domains shown)
VH: QVQLVQSGGGVVQPGRSLRLSCAASGFTFSSYGMHWVRQAPGKGLEWVAFIRYDGSNKYYADSVKGRFTISRDNSKNTLYLQMKSLRAEDTAVYYCKTHGSHDNWGQGTMVTVSS
VL: SYVLTQPPSVSGTPGQRVTISCSGGRSNIGSNTVKWYQQLPGTAPKLLIYGNDQRPSGVPDRFSGSKSGTSASLAITGVQAEDEADYYCQSYDRYTHPALLFGTGTKVTVLG
notes: IgG
Consider B4, for which, in assay [1], the “IFN gamma IC50” value came out at 0.04 nM and the “PHA assay IC50” value is 0.05 nM. The same molecule returned an off-rate (koff) in assay [3] of 0.000127 s⁻¹. The IC50 in assay [2] was determined as 0.06 nM.

B5: 149-7 (antibody, V domains shown)
VH: TTHGSHDNWGQG
VL: QSYDRDFTGSRV
B5: in assay [4], the “PHA assay IC50 (M) p70:p40 1:0” value was 3.5e-09 M, the “PHA assay IC50 (M) p70:p40 1:20” value was found to be 2.5e-09 M and the “PHA assay IC50 (M) p70:p40 1:50” value was 4e-09 M.
